Measured values from patent US20240092908A1.
pEC50, pIC50: −log10 of the molar value.

Tests used:
[1] = target: fusion protein hPD1-HSA composed of a PD1 extracellular domain sequence and a human serum albumin sequence (human); test: ELISA, hPD1-HSA coated 200 ng/well, HRP anti-human IgG Fc
[2] = target: fusion protein hPD1-HSA composed of a PD1 extracellular domain sequence and a human serum albumin sequence (human); test: competitive ELISA, hPD1-HSA coated; competitor bio-hPDL1-FC, HRP-Streptavidin

Keytruda ® (antibody)
pEC50 [1]: 9.74
pIC50 [2]: 8.76
